Article PMC5345856, “Suppressor of rid1 (SID1) shares common targets with RID1 on florigen genes to initiate floral transition in rice”
Where a chain is given by its changes, count along the chain named.

T1: RID1 (Oryza sativa (rice), UniProt B1B534 1-475)
T1 sequence: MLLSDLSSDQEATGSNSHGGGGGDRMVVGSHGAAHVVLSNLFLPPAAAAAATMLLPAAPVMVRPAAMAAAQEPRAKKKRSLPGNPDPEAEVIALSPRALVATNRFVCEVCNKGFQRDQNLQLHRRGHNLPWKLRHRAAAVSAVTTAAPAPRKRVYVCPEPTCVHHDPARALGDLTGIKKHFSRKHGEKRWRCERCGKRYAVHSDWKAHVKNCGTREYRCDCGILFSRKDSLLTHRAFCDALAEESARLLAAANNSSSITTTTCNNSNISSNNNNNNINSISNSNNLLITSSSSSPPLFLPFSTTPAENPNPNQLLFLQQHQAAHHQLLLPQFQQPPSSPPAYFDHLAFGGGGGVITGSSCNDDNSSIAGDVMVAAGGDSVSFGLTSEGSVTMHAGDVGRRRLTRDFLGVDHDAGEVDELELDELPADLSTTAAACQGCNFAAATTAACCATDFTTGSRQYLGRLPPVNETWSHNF

B1: bio-Hd3a (dsDNA)
DNA 1: CTTATCTTGCCCGGACAAATCGAGCTAAGCAA
DNA 2: TTGCTTAGCTCGATTTGTCCGGGCAAGATAAG
B2: bio-Hd3a-M (dsDNA)
DNA 1: B1 DNA 1 with C16T, A17T
DNA 2: B1 DNA 2 with T16A, G17A
B3: bio-RFT1 (dsDNA)
DNA 1: ATAACGTTTGACCATTTGTCTTATTAAATATATATATAAA
DNA 2: TTTATATATATATTTAATAAGACAAATGGTCAAACGTTAT
B4: bio-RFT1-M (dsDNA)
DNA 1: B3 DNA 1 with T17A, G18A
DNA 2: B3 DNA 2 with C23T, A24T

These binders were tested against T1, RID1 (assay: EMSA; 10 uM ZnCl2; 10 mM Tris (pH not stated), 50 mM KCl, 10 uM ZnCl2, 1 mM DTT, 1 ug/ul poly(dI-dC), 0.1% BSA, 2.5% glycerol, 0.05% NP-40; 50 fmol probe; 30 min on ice; 6% native PAGE). Conditions: protein: recombinant; tags: His (pET-32a; vector Trx fusion not mentioned); label: 5' biotin; blunt.

Binder | binding result
B1 | binds
B2 | no binding
B3 | binds
B4 | no binding
